Reference: the supplement of paper PMC9170038

Test system: MS2 coat protein
Assay: apparent KD of MS2 coat protein; higher = weaker reporter binding
Conditions: Eterna round: R107
How it was run: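 Designed RNA switches, transcribed on-chip from Illumina sequencing clusters, were titrated with SNAP-549-labelled MS2 coat protein from 0.7 or 1.5 nM to 3 µM in twofold steps. The solution was 100 mM Tris-HCl pH 7.5, 80 mM KCl, 4 mM MgCl2, with constant ligand or without it. Apparent KD is the median over each design's normalised cluster binding-curve fits.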

[1] = input ligand: theophylline 20 uM
[2] = input ligand: theophylline 2 mM
[3] = input ligand: tryptophan 2.4 mM

Sequence	apparent KD of MS2 coat protein (input ligand: arginine 13.2 mM) [nM]	apparent KD of MS2 coat protein (input ligand: none) [nM]	apparent KD of MS2 coat protein [1] [nM]	apparent KD of MS2 coat protein [2] [nM]	apparent KD of MS2 coat protein [3] [nM]
GGAUGCGGCACGGCCGCCACUGCGGUGGUGUGACAUGAGGAUCACCCAUGUUGUCAUGCGGCCCUUAGGACCGGGUGGCGUUUCC [#1 Exclusion - Tryptophan B Attempt #20 (HarryS)]	38	56.7	73.6	66.7	62.9
CAGCCUGGUUGGUAAAUCCCUCAUCGUGAUACCAGUCGAGUGAUCGACCCUUGGCAGCACAUGAGGAUCACCCAUGUGCUCGUAU [Diorqu]	18.6		31.1		17.9
GCUGCCAUACGAAGGAGCGCUGGUGUAGUGCGGCGAACAUGAGGAUCACCCAUGUGGCAGCAGCAGGUAGGUCGCGUAUGGCAGC [EAB #14]	12.3	11.2	14.6	12.6	11
UCUUUCUAUAGUGAUACCAGACGUACAUGAGGAUCACCCAUGUUACAUUCUUGGUUAAAAGUCCCUUGGCAGCACGAUUUGUUCG [JR_Nu_ExcTheophyB_Sub027]	9.7		10.9		10.3
CCGUUUUAUGGCGACAUAGGGCGGACUGAAGGAGCGGGAUAAAACCCAGGUAGGUCGCAGAGAUCCACAUGAGGAUCACCCAUGU [!0.X]	35.9	38	54.5	32.8	35.9
AGCGGCUCGAAAGAGUCGCACUCAUGUGAAGGAGCGCCCGUUAGGGCAGGUAGGUCGCACAUGAGGAUCACCCAUGUACCUUCUA [MAT - Exclusion Arginine A - Mod of Eli - D19]	53.1	196	282	312	140
UGUAUGGACUGAAGGAGCGGGUAAUAAAUCUGAGGAUCACCCAGGUAAUAGGCGAAAGCCACCCAGGUAGGUCGCAGUCCAUACU	17.7	19	25.1	19.3	19.4
AGCCUCAUACAUGAGGAUCACCCAUGUGAUACCAGUCAGGAAACUGACCCUUGGCAGCGCAUGAGGAUCACCCAUGUGCGAGGCA [Omei Theo A Exc A v2]	25.1		171		32.9
GGACUAACCAGAAGGAGCGACGCGCAGAAACUGCAAAAUCCUCCGCACGAGGAUCACCCGUGUCAGGUAGGUCGCUGGUUAGUCG	21.9	29.6	34.5	32.6	27.7
AGUAGUUGACAAAAGUCAGCUACAACUGAAGGAGCGGGUGGGUGCCCAGGUAGGUCGCGGAAACAUGAGGAUCACCCAUGUAUAA [ArgAS 1 #BothOrNeither #OpenEnded]	37.3	13.1	19.4	21.7	21.7
GGGCCCGGGCGCGAGCCCGGGCCCAUUGAUACCAGUGAAUGUGUACGCCCUUGGCAGCGAAUCCUAACAUGAGGAUCACCCAUGU [5.D]	31.4		76.7		35.2
UUCUACGACGAUCUGGGAAAACCAGAUCGACGAGGACCGGUACGGCCGCCACUCGUGUUUCUUUAACAUGAGGAUCACCCAUGUA [#12 Tryptophan A Same State]	23.6		28	27.8	
UGACAUUGCUCAGAUACCAGACAUGAGGAUCACCCAUGUACCAAGGUAAGAAAAUAACAUGUCCCUUGGCAGCUGAGCAAUGUCU [First try #MS2Left #Theo2]	16.4		38.4		14.6
AAUUGGGUUGGUGAGGUGGUUGGAGGCGAUACCAGCGUGGAAACACGCCCUUGGCAGCGCCAGGACAUGAGGAUCACCCAUGUUA [Brno]	48.9	131	160	448	175
GGCCCUGCGAGCGCUCGCAGGGCCGCGGAUACCAGCGAGGUCCAUCGCCCUUGGCAGCCGAACAUGAGGAUCACCCAUGUCGGUU [#1 Same State - Theophylline A Attempt #12 (HarryS)]	5.98	11.2	12.3	14.4	9.96
AAUACAGUGUCGGCCGCCACUGAAACAUGACAUGAGACAUGAGGAUCACCCAUGUACAUAAUAAACAGGACCGGGACCCAUGUAU [Same State Tryptophan B]	28.9		42.4	42.5	
CUGCCAUGCAGAGAUACCAGUGCGCUCAGCACAUGAGGAUCACCCAUGUAGGAUGCCAAUCACCCUUGGCAGCUCUGCAUGGCAG [~`&)_]	15.5	15.7	22.8	12.8	16.3
GUGACUUAAAGGCGCCAUUUGUGAUAGGAAGGAGCGGCGAAAUAGCCAGGUAGGUCGCCUAUACAUGAGGAUCACCCAUGUCACC [XARG-A 26]	48.7	98.5	84.4	123	73.7
GGGUCGGGCGCGGCCGCCACUGCGGUGGUGUGACAUGAGGAUCACCCAUGUUGUCAUGCGGCCCUUAGGACCGGGCGCCCGGCCC [#1 Exclusion - Tryptophan B Attempt #11 (HarryS)]	19.3	42.5	67.4	70.1	38.4
